The nanobody polyreactivity screen of Harvey et al. (2022)

Assay: yeast display, Sf9 membrane polyspecificity reagent, FACS + sequencing; frameworks hold sequencing errors
Procedure, shortened: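 Galactose-induced (36–48 hours) yeast carrying a synthetic nanobody display library were exposed to 10% biotinylated, detergent-solubilized Sf9 membrane reagent at 4 °C for 1 hour. FACS followed streptavidin microbead enrichment, using low and high (top ~1%) gates for expression (anti-HA) and reagent binding (streptavidin). Colony PCR, MiSeq 2 × 250 sequencing and CDR-length filtering followed. Labels for polyreactivity reflect the gate of origin.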

Sequence	polyreactivity (PSR sort gate)
QVQLVESGGGLVQAGGSLRLSCAASGSTFLAYAMGWYRQAPGKERELVAAISSSGGRPYYADSVKGRFTISRDYAKNTVYLQMNSLNPEDTAVYYCAARYKNRGGFGYWGQGTRVTVSS	high polyreactivity
QVQLVESGGGLVQAGGSLRLSCAASGSTIPSYAMGWYRQAPGKERELVASITYSDGTTRYADSVKGRFTISRDNAKNTVYLQMNSLKPEDTAVYYCAKYYYTSIVGYDSWGQGTQVTVSS	low polyreactivity
QVQLVESGGGLVQAGGSLRLSCAASGYIFKYNAMGWYIQAPGKERELVAAISGRGGSTYYADSVKGRFTISRDNAKNTVYLQMNSLKPEDTAVYYCNADYQARRYNYWGQGTQVTVSS	high polyreactivity
QVHLVESAVRLVQAGGSLRLSCAAPGFTFFSNARGWYRQAHGKERELFASITNDGSTYADSVKGRFTISRDNAMNTVYLQMTSLKPEDTAVYYCAARVPQWRYSRRTRERFDFWGQGTQVTVSS	low polyreactivity
QVQLVESGGGLVQAGGSLRLSCAASGIIFPPYAMGWYRQAPWKEREFVAGITSSGGTYYADSVKGRFTISRDNAKNTVYLQMNSLKPEDTAVYYCAARQGNLRRGVRWFNYWGQGTQVTVSS	high polyreactivity
QVQLVESGGGLVQAGGSLRLSCAASGRIFTRYAMGWYRQAPGKERELVATITKSGGSTYYADSVKGRFTISRDNAKNTVSLQMNSQKPDDTAVYYCAADSWWTYQYDYWGQGTQVTVSS	low polyreactivity
QVQLVESGAGLVQAGGSLRLSCAASGSTFKRYAMGWYRQAPGKERELVAAITWRGGSTYYADSVKGRFTISRDNAKNTVYLQMNSLKPEDTAVYYSATDYVYRYDYWGQGTQVTVSS	high polyreactivity
QVQLVESGGGLVQAGGSLRLSCAASGFIFRYYAMGWYRQAPGKERELVAAISGNGGNTYYADSVKGRFTISRDNAKNTVYLQMNSLKPEDTAVYYCNRAPGYRGGRYDYWGQGTQVTVSS	high polyreactivity
QVQLVESCGGLVQAGGSLRLSCAASGRTFSLYTMGWYRQAPGKERELVATIRSRGGSTYYADSVKGRFTISRDNAKNTFYLQMNSLIPEDTAVYYCATVLRGPFLGWHGGPMYHWGQGTQVTVSS	low polyreactivity
QVQLVESGGGLVQAGGSLRLSCAASGRIVPYAMGWYRQAPGKERELVARINFNGGSTYYADSVKGRFTISRDNAKNTVYLQMNSLKPEDTAVYDCAARVYRYRYSKYDYWGQGTQVTVSS	high polyreactivity
QVQLVESGGGLVQAGGSLRLTCAASGSTFGLNAMGWYRQAPAKERELVAAITSRGTRTYYADSVKGRFTISRDNAKNTVYLQMNSLKPEDTAVYYCGKDSGATRYGEYDYWGQGTQVTVSS	low polyreactivity
QVQLVESGGGLVQAGGSLRLSCAASGNILSVNAMGWYRQAPGKERELVASIRSSTASTYYADSVKGRFTISRDNAKNTVYLQMNSLKPEDTAVYYCAARARYNRYDYWGQGTQVTVSS	high polyreactivity
QVQLVESGGGLVQAGGSLRLSCAASGSTFLYYAMGWYRPAPGKESELVAGISASGGSTYYADSVKGRFTISRDNAKITVYLQMNSLKPEDTAVYYCARYAGFPYTQCDYWGQGTQVTVSS	high polyreactivity
QVQLVESGGGLVQAGGSLRLSCAASGRTFYIYAMGWYRQAPGKERELVAAISTRDTRTYYADSVKGRFTISRDNAKNTVYLQMNSLKPEDTAVYYCAADAVDRDSDYWGQGTQVTVSS	high polyreactivity
QVQLVESGGGLVQAGGSLRLSCPASGSTFQYNPLGWYRQAPGKERELVAAISRRGGSTYYADSVKGRFTISRDNAKNTVYLQMNSLKPEDTAVYYCAVSAYKGYDYWGQGTQVTVSS	high polyreactivity
QVQLVESGGGLVQAGGSLRLSCAASGFTFSEYAMGWYRQAPGKERELVAAISQRGGSTYYADSVKGRFTISRDNAKNTVYLQMNSLKPEDTAVYYCAADSARYYGAKRFGYWGQGTQVTVSS	high polyreactivity
QVQLVESGGCLVQAGGSLRLSCAASGSTFGYNAMGWYRQATGKERELVAAITWTGASTYYADSVKGRFTISRDNAKNTVYLKINSLKPEDTEVYYCNRVGYQSMNYWGQGTQVTVSS	low polyreactivity
QVQLVESGGGLVQAGGSLRLSCAASGSIFSKYVMGWYRQAPGKERELVAAISWSGTRTYYADSVKGRFTISRDNAKNTVYLQMNSLKPEDTAVYYCAARRLYAGHQYDYWGQGTQVTVSS	high polyreactivity
QVQLVESGGGLVQAGGSLRLSCAASGSIFYEYAMGWYRQAPGKEREFVASISWSGGITYYADSVKGRFTISRDNAKNTVYLQMNSLKPEDTAVYYCAADFSWYLYDYDYWGQGTQVTVSA	low polyreactivity
QVQLVESGGGLVQAGGSLRLSCAASGSTFQTYAMGWYRQAPGKERELVAAISFNGGSTYYADSVKGRFTISRDNAKNTVYLQMNSLKPEDTAVYYCAVEYTWASALYDGRHDYWGQGTQVTVSS	high polyreactivity
QVQLEESGGGLVQAGVSLRLSCAASGSTFSLYAMGWYRPAPGKERELVAAISSGGRTNYADSVKGRFTISRDNAKKTVYLQMNSLKPEDTAVYYCAARIQWPTWSLYYYWGQGTQVTVSS	high polyreactivity
QVPLVESGGGLVQAGGSLRLSCAASGGIFGRYAMGWYRQAPGKERELVAALSARGGSSYYADSVKGRFTISRDNAKNTVYFQMNSLKPEDTAVYYCNALWVSYYTFRMDYWGQGTQVTVSS	high polyreactivity

Sequence	polyreactivity (PSR sort gate)
QVQLVESGGGLVQAGGSLRLSCAASGINFNLYAMGWYRQAPGKERELVAAISRSGDSTNYADSVKGRFTISRDNAKNTVDLQMNSLKPEDTAVYYCAVGYRYLKWVDYWGQGTQVTVSS	high polyreactivity
QVQLVESGGGVVQAGGSLRLSCAASGFTFVRYTMGWYRQAPGKERELVAAITKRGGSTYYADSVKGRFTISRDNAKNTVYLQMNSLKPEDTAVYYCAAAVGNTDREYDYWGQGTQVTVSS	low polyreactivity
QLQLEDSGGGLVQAGGSLRISCAASARIVGGNTMGWYRQAPGKERELVAAITYRGGSTYYADSVKGRFTISRDNAKYTVYLQINSLKPVATAVYYCATAGYWGGDYWGQGTQVTVSS	low polyreactivity
QVQLVESGGGLVQAGGSLRLSCAASGRIFVSNAMGWYRQAPGKERELVAAISKSGGRTYYADSVKGRFTISRDNAKNTVYLQMNSLKPEDTAVYYCAARSRVSPRYDYWGQGTQVTVSS	high polyreactivity
QVQLVESGGGLVQAGVSLRLSCAASGLTFGAYAMGWYRQAPGKERELVAAINVSGGSTYYADSVKGRFTISRDNAKNTVYLQMNSLKPEDTAVYYCNAGLVLGGIFIPLYDYWGQGTQVTVSS	high polyreactivity
QVQLVESGGGLVQAGGSLRLSCAASGIIFRPNAMGWYRQEPGKERELVAAISRNGVRTYYSDSVKGRFTISRDNAKITVYLQMNSLKPEDTAVYYCNRDYNAAYDWGEGTQVTVSS	high polyreactivity
QVQLVESGGGLVQAGGSLRLSCAASGITFWSYAMGWYRQAPGKERELVAAISRGGDSTYYADSVKGRFTISRDNAKNTVYLQMNSLKPEDTAVYYCAALRKREEYYWGQGTQVTVSS	high polyreactivity
QVQLVESGGGLVQAGGSLRLSCAASGGTFRNYPMGWYRQAPGKERELVAAITTGTITNYADSVKGRFTISRDNAKNTVYLQMNSLKPEDTAVYYCNAGAFYSDPYDYWGQGTQVTVSS	low polyreactivity
QVQLGESGRGLVQAGGSLRLSCAASGRTSWYYAMGWYSQAPGKERELVATSTRSTGSTYYADSVKGRFTISRDNAKNTVYLQMNSLKPEDTAVYYCAKRRKTQPFYIKWYRVDYWGQGTQVTVST	high polyreactivity
QVQLVESGGGLVQAGGSLRLSCAASGITLKKYAMVWYRQAPGKERELVAAISIRGTSTYYADSVKGRFTISRDNAKNSVFLQMNSLKPEDTAVYYFAALYVVGDVRSGYWGQCTQVTVSS	high polyreactivity
QVQLVESGGGLVQEGGSLRLICAASGRTLNSYDMGWYRQEPGKERELVAAISWSGTNTYYSDSVKGRFTISRDNAKNTVYLQMNCLKPEDTAVYYCNAVTKATRYEYWGQGTQVTVSS	high polyreactivity
QVQLVESGGGLVQAGVSLRLRCASSGFTFRPYAIGWYRQAPGKERELVAAITSGDSTNYADSVKGRFTISRDNEKNTVYLQMNSLKREDTAVYYCAADSTGRPSVSYDYWGQGTQVTVSS	low polyreactivity
QVQLVETGGGLVQAGGSLRLSCAASGFIFGYYAMGWYRQAPGKERELVADITSGGSTYYADSVKGRFIISRDNAKNTVYLQMNSLKPEDTAVYYCNKAWELVSQSLYYTEYNYWGQGTQVTVSS	low polyreactivity
QVQLVETGGRLGQAGGSLRLSCAASGRTFGYNAMGWYRQAPGKERELVAAISWSGTRTYYADSVKWRFTISRDNAKNTVYLQRNSLKPEDTAVYYCAARIAVYGGSYGWFDYWGQGTQVTVSS	high polyreactivity
QVQLVESGGGLVQAGGSLRLSCAASGGIFHGYVMGWYRQEPGKERELVASIRTRGVRTYYADSVKGRFTISRDNAKNTVYLQMNSLKPEDTAVYYCNARGQVYSTLSSYRYDYWGQGTQVTVSS	high polyreactivity
QVQLVESGGGLVQAGGSLRLSCAASGFTFYLNVMGWYRQAPGKERELVARISRSGGTTYYADSVKGRFTISRDNAKNTVYLQMNSLKPEDTAVYYCAARRYGVPPTYDYWGQGTQVTVSS	high polyreactivity
QVQLVESGGGLVQAGGSLRLSCAASGFIFGGFTMGWSRQAPGNERELVAAISRSGGSTYYADSVKGRFTISRDNAKNTVYLQMNSLKPEDTAVYYCATLNYYGEVEYWGQGTQVTVSS	high polyreactivity
QVQLVESGGGLVQAGGSLRLSCAASGFTFRYNAMGWYRQAPGKERELVAAISSDGITSYADSVKGRFTISRDNAKNTVYLQMNSLKPEDTAVYYCAADWRWYSAWHFGYWGQGTQVTVSS	high polyreactivity
QVQLVESGGGLVQAGGSHRFSCAASGFTFGHDTMGWYRQAPGKERELVAAITWRGGTYYADSEKGRFTISRDNAMNTVYLQMNSMKPEDTAVYYCAKRRASRYYWGQGTQVTVSS	high polyreactivity
QVHLVQSGGGIVQAGGSLRLSCPASGSIFGYYAMGWYRQPRGKERELVAAITGGGRTYYADSVKGRFTISRDNAKNTVYLQMNSLKPEDTGVYYCTARSTSYRSYWRDYWGQGTHVTVSS	high polyreactivity
QVQLVESGGGLVQAGGSLRLSCAASGRIFYYNAMGWYRQAPGKEMELVAAITSGGSTNYADSVKGRFTISRDNAKNTVYLQMNSLKPEDTAVYYCAADYYYYVAGVHYDYWGQGTQVTVSS	low polyreactivity
